Assay results published in IntAct's records for PubMed 33947832.

B1: ORF3a protein (SARS-CoV-2), P0DTC3 (parent)
chain: MDLFMRIFTIGTVTLKQGEIKDATPSDFVRATATIPIQASLPFGWLIVGVALLAVFQSASKIITLKKRWQLALSKGVHFVCNLLLLFVTVYSHLLLVAAGLEAPFLYLYALVYFLQSINFVRIIMRLWLCWKCRSKNPLLYDANYFLCWHTNCYDYCIPYNSVTSSIVITSGDGTTSPISEHDYQIGGYTEKWESGVKDCVVLHSYFTSDYYQLYSTQLSTDTGVEHVTFFIYNKIVDEPEEHVQIHTIDGSSGVVNPVMEPIYDEPTTTTSVPL
partner: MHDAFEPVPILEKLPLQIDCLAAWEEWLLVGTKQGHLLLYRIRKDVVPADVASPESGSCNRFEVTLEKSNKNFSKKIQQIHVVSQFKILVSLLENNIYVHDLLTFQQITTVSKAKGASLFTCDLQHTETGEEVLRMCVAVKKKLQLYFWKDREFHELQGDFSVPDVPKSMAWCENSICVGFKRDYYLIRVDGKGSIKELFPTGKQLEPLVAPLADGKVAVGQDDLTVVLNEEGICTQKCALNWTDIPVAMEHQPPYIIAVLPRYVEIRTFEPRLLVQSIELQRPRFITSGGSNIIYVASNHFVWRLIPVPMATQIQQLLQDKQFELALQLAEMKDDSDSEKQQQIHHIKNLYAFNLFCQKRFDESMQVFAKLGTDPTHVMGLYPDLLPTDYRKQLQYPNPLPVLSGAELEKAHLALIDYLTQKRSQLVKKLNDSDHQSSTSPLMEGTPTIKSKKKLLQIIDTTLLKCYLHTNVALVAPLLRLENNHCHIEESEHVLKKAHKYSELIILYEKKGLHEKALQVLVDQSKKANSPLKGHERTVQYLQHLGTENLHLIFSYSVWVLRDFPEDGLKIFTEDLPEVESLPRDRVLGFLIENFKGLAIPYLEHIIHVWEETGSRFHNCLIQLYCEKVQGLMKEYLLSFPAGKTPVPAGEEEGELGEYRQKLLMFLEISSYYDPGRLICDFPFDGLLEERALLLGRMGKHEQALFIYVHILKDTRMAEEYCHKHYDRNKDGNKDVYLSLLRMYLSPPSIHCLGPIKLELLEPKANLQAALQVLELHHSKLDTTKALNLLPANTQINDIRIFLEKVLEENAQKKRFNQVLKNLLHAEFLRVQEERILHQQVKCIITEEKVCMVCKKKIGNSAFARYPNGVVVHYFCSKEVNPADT

Variants of: B1
Details: with vps39_human VPS39, Q96JC1

Variant	effect of a mutation on the interaction
Y160A	disrupting interaction strength
